What was measured:
[1] = biological target: human Dcn1 potentiating neddylation domain (hDcn1^P) (human) (UniProt Q96GG9); assay: ITC
[2] = biological target: yeast Dcn1 potentiating neddylation domain (yDcn1^P) (yeast) (UniProt Q12395); assay: ITC
UniProt Q12395, sequence (Q12395 70-269): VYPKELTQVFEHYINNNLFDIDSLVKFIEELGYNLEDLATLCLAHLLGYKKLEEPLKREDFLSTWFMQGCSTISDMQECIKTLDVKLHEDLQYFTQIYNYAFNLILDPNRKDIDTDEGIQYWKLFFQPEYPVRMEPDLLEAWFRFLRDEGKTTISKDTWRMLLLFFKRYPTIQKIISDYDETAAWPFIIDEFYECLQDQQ

UniProt Q96GG9, sequence (Q96GG9 62-259): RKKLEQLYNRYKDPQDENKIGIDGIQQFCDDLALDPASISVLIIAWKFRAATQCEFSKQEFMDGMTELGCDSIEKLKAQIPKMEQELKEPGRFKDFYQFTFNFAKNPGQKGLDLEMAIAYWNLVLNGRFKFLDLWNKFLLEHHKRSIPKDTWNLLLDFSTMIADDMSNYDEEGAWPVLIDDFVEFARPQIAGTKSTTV

Row | fold change of Kd against the acetylated peptide (weaker binding) [1] [fold] | fold improvement of binding over the unacetylated peptide [1] [fold] | fold change of Kd against the acetylated peptide (weaker binding) [2] [fold] | fold improvement of binding over the unacetylated peptide [2] [fold] | Substance
1 | 9 | 10 | – | – | N-terminally formylated human Ubc12 peptide
2 | – | – | 17 | 10 | N-terminally formylated yeast Ubc12 peptide
